From the supplement of paper PMC10065799, “High-throughput profiling of sequence recognition by tyrosine kinases and SH2 domains using bacterial peptide display” (eLife, 2023) come the findings set out here.

One data set relates to AncSZ. Put plainly: phosphorylation enrichment, bacterial display (enrichment ratio); higher = better substrate or ligand; peptides without Tyr show the background.
The target of a further data set is EPHB1 (UniProt P54762). The description is as above.
The target of a further data set is EPHB2 (UniProt P29323). Described as above.
Sequence of EPHB2 (P29323 whole entry, looked up): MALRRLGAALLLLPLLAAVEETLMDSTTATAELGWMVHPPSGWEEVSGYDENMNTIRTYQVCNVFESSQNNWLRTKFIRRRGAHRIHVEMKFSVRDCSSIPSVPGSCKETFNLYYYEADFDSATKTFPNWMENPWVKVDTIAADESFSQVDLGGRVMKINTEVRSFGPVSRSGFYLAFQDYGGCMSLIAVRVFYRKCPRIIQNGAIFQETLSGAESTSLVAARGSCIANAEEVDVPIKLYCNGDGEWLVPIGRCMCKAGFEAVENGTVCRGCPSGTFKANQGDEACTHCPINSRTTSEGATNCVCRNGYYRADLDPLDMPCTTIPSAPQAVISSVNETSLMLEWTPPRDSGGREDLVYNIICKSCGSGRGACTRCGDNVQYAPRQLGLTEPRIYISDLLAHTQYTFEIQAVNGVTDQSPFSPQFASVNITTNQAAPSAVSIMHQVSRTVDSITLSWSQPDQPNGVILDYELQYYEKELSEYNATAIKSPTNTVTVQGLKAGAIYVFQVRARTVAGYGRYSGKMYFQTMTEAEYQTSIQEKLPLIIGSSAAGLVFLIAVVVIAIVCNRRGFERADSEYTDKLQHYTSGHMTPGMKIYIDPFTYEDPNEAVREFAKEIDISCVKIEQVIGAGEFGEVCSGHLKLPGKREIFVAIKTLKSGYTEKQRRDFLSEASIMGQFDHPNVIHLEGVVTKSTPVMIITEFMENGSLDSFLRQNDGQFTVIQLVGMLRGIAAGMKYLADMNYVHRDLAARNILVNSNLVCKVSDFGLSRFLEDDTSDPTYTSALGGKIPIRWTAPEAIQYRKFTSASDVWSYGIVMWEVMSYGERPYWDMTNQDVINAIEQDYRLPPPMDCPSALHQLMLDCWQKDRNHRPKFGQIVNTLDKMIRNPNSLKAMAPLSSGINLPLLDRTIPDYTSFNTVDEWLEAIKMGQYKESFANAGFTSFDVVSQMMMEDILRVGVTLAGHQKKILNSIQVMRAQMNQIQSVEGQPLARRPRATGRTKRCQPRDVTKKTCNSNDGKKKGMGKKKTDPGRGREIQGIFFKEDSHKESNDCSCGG
The next data set addresses FGFR1 (UniProt P11362). The description is as above.
The target of another data set is FGFR3 (UniProt P22607). The description is as above.
In the next data set the test system is Fer (mouse). Described as above.
The next data set addresses Fes (UniProt P07332). Described as above.
The next data set has as its target Fyn (UniProt P06241). The description is as above.
In another data set the target is Hck (UniProt P08631). The description is as above.
Sequence of Hck (P08631 whole entry, looked up): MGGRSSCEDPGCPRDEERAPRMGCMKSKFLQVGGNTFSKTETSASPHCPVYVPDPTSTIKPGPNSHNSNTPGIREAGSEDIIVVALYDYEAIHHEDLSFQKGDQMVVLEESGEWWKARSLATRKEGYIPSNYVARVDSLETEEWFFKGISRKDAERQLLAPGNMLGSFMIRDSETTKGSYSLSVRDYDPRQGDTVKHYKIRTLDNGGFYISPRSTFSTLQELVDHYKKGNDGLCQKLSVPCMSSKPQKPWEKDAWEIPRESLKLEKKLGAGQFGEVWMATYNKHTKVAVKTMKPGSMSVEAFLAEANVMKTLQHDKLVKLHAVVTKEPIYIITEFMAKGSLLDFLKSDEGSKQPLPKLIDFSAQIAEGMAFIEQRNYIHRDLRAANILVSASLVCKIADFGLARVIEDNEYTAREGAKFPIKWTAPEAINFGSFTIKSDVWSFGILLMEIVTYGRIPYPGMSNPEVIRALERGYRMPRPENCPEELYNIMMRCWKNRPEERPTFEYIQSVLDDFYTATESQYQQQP
For a further data set, the target named is Jak2 (UniProt O60674). The description is as above.
Sequence of Jak2 (O60674 whole entry, looked up): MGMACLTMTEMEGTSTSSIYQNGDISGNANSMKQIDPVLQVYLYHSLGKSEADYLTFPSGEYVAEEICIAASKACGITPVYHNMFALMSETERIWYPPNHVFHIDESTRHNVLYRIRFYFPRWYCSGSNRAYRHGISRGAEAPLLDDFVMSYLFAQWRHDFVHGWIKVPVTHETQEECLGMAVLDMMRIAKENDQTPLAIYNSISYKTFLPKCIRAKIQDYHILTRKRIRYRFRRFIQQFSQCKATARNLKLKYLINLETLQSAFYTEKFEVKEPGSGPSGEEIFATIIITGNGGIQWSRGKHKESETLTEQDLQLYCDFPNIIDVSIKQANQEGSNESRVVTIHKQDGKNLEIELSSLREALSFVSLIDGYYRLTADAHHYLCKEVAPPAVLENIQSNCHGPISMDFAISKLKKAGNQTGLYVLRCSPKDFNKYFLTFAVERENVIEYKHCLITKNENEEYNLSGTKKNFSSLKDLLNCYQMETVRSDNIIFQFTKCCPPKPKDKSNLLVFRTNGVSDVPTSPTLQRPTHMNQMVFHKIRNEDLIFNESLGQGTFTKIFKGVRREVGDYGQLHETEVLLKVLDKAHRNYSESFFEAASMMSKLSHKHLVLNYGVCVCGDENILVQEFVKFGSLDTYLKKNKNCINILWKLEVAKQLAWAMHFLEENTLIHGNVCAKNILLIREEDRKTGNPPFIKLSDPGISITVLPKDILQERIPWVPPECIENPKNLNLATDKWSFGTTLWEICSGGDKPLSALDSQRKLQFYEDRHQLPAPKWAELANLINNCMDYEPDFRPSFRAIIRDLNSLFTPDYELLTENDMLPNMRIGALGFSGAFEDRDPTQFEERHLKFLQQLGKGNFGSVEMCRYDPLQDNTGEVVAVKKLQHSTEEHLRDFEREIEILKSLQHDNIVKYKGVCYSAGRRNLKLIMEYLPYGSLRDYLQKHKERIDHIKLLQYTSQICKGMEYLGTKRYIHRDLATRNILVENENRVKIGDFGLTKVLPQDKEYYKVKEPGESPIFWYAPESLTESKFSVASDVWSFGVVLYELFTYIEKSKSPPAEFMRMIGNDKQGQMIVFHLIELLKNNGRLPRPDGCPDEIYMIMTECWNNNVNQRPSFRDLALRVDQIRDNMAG
For a further data set, the target named is MERTK (UniProt Q12866). Described as above.
Sequence of MERTK (Q12866 whole entry, looked up): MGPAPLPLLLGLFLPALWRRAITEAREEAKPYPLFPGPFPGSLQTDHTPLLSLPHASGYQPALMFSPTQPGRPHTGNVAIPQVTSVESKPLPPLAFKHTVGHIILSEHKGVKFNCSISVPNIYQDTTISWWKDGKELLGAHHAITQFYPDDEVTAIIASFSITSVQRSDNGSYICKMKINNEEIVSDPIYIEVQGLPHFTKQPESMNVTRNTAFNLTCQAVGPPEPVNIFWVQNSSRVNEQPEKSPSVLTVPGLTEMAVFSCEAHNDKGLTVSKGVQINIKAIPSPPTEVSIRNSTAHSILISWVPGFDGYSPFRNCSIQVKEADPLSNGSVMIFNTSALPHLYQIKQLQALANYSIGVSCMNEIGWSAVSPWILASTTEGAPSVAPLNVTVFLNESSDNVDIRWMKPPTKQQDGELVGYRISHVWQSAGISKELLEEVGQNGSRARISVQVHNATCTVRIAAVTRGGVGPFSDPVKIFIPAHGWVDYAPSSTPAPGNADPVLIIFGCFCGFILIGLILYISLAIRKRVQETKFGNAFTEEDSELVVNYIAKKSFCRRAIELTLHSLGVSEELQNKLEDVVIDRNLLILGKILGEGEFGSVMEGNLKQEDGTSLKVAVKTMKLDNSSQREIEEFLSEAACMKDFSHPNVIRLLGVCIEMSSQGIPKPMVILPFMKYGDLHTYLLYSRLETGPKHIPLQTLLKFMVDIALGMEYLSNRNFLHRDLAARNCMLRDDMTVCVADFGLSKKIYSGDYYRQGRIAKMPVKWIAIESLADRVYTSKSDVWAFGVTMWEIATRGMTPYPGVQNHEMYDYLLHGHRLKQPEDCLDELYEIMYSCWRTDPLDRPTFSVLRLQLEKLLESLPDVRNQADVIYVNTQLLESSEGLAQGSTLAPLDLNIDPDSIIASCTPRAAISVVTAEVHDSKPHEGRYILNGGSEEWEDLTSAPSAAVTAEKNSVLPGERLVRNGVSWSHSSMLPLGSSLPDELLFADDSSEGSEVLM
Another data set concerns c-Abl (mouse). The description is as above.
The subject of another data set is c-Src. Described as above.
The target in the next data set is Grb2 SH2 (UniProt P62993). Put plainly: SH2 binding enrichment of the phosphorylated peptide, bacterial display (enrichment ratio); higher = better substrate or ligand; peptides without Tyr show the background.
Sequence of Grb2 SH2 (P62993 whole entry, looked up): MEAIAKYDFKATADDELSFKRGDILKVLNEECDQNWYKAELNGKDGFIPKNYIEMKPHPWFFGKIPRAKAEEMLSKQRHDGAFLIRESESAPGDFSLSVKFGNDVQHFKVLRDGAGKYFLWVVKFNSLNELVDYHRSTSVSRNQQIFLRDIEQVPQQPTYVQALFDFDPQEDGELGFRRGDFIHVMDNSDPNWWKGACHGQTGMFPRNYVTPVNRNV
The next data set addresses SHP2-C SH2. The data set is described as above.
In a further data set the target is c-Src SH2. The description is as above.
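Throughout, for SH2 binding enrichment of the phosphorylated peptide, bacterial display: peptide library displayed on the E. coli surface as eCPX fusions, selected cells deep-sequenced, score is each peptide's frequency after selection divided by its frequency in the input.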
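Throughout, for phosphorylation enrichment, bacterial display: 11-residue human phosphosite peptides and single-mutation variants displayed on the E. coli surface, counted by deep sequencing, each peptide's frequency after selection divided by its frequency in the unselected input library; frequency after pTyr selection over input frequency; kinase dosed for 20-30% of maximal phosphorylation in three min.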

Sequence of EPHB1 (P54762 whole entry, looked up): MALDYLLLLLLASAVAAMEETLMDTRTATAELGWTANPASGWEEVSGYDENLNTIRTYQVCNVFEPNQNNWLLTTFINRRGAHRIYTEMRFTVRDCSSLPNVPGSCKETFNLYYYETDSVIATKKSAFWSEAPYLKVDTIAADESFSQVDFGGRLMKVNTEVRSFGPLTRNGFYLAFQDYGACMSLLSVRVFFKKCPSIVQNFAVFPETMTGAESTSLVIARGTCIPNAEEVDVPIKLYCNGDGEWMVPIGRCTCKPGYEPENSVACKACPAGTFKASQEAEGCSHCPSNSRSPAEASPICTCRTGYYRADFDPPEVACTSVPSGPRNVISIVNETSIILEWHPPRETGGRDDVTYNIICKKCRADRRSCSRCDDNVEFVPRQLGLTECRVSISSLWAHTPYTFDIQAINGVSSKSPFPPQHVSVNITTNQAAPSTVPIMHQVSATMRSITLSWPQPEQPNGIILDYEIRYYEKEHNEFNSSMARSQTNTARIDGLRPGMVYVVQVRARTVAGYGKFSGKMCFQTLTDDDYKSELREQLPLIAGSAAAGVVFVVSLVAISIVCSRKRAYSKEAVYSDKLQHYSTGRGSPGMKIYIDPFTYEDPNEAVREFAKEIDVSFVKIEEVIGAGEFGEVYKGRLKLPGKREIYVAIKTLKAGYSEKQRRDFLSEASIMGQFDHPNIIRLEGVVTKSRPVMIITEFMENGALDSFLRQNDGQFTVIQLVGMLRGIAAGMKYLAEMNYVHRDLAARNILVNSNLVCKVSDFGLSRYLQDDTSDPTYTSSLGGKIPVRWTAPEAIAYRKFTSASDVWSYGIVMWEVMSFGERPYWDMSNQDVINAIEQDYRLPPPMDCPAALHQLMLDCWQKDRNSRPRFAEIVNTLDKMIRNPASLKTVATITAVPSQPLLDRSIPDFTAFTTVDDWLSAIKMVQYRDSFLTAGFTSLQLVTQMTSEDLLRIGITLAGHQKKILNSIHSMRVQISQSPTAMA

Consider QDIMAYRGREV [BCL6_Y157], for which the phosphorylation enrichment with AncSZ came out at 1.1; with EPHB1 it was 0.52; with EPHB2, 0.553; in the data set with FGFR1 it was 0.565; in the data set with FGFR3, 0.717; in the data set on Fer (mouse) it was 0.616. Further, the phosphorylation enrichment was 1.04 in the data set with Fes; 0.632 with Fyn; 0.448 with Hck; 0.937 in the data set with Jak2; 0.599 in the data set with MERTK; 0.536 in the data set on c-Abl (mouse). In the data set with c-Src, the phosphorylation enrichment came to 0.531. The SH2 binding enrichment came to 0.769 in the data set with Grb2 SH2, 0.729 in the data set with SHP2-C SH2 and 0.447 in the data set with c-Src SH2.
With QFLMKYVWSAS [ABCD1_Y337], the phosphorylation enrichment was 1.15 in the data set with AncSZ; 0.582 with EPHB1; 0.541 with EPHB2; 0.513 with FGFR1; 0.759 in the data set with FGFR3; 0.565 with Fer (mouse). Besides, the phosphorylation enrichment was determined as 1.49 in the data set with Fes; 0.3 with Fyn; 0.587 with Hck; 1.42 with Jak2; 0.528 with MERTK; 0.929 in the data set on c-Abl (mouse). For the same sequence, in the data set with c-Src, the phosphorylation enrichment was 0.559. The SH2 binding enrichment in the data set with Grb2 SH2 turned out to be 0.677; in the data set with SHP2-C SH2, 0.668; with c-Src SH2 it was 0.499.
For QFRFIYMAVQH [PTPN11_Y515_YF], the phosphorylation enrichment was 2.5 with AncSZ; 1.06 with EPHB1; 0.704 with EPHB2; 0.544 in the data set with FGFR1; 1.22 with FGFR3; 1.3 in the data set on Fer (mouse). Moreover, the phosphorylation enrichment in the data set with Fes came to 2.52; with Fyn it was 0.939; in the data set with Hck, 1.42; in the data set with Jak2, 2.21; with MERTK, 0.858; with c-Abl (mouse), 1.73. In the data set on c-Src, the phosphorylation enrichment turned out to be 1.97. In addition, the SH2 binding enrichment with Grb2 SH2 stood at 0.948; with SHP2-C SH2, 0.635; with c-Src SH2, 0.58.
For QGCGIYKDYYR [PLA2G2D_Y82_S80G], the phosphorylation enrichment with AncSZ was 1.69; with EPHB1 it was 1.04; in the data set with EPHB2, 0.904; with FGFR1, 1.1; with FGFR3, 1.19; in the data set with Fer (mouse), 0.67. Also, the phosphorylation enrichment with Fes is 1.59; with Fyn it was 5.71; in the data set with Hck it was 3.57; in the data set with Jak2, 1.21; in the data set with MERTK it was 0.773; with c-Abl (mouse), 1.18. Moreover, the phosphorylation enrichment with c-Src was determined as 6.8. For the same sequence, the SH2 binding enrichment with Grb2 SH2 came out at 0.956; in the data set with SHP2-C SH2 it was 0.931; with c-Src SH2, 0.497.
For the sequence QGIYGYHHYMQ [UFSP2_Y287], the phosphorylation enrichment with AncSZ worked out at 1.6; with EPHB1, 3.8; with EPHB2 it was 8.11; with FGFR1, 1.32; with FGFR3, 1.52; with Fer (mouse), 13.8. For the same sequence, the phosphorylation enrichment with Fes worked out at 1.31; with Fyn, 10.6; with Hck it was 8.27; with Jak2, 1.36; in the data set with MERTK, 10.4; in the data set with c-Abl (mouse) it was 5.12. In addition, the phosphorylation enrichment in the data set on c-Src worked out at 8.3. Also, the figures for the SH2 binding enrichment in the data set with Grb2 SH2, in the data set with SHP2-C SH2 and in the data set with c-Src SH2 were 1.03, 1.67 and 2.15, respectively.
For QHVPDYRQNGY [PCDHGA1_Y890_V894G], the phosphorylation enrichment turned out to be 0.788 with AncSZ; 0.484 with EPHB1; 0.548 with EPHB2; 0.52 with FGFR1; 0.578 in the data set with FGFR3; 0.496 in the data set on Fer (mouse). Further, the phosphorylation enrichment with Fes was 0.887; with Fyn, 0.523; with Hck, 0.524; in the data set with Jak2, 0.719; in the data set with MERTK it was 0.493; in the data set on c-Abl (mouse) it was 0.621. In addition, in the data set with c-Src, the phosphorylation enrichment amounted to 0.514. Also, the SH2 binding enrichment with Grb2 SH2 stood at 0.889; in the data set with SHP2-C SH2, 0.678; with c-Src SH2, 0.486.
For QKKPRYEIRWK [PDGFRB_Y562], the phosphorylation enrichment in the data set on AncSZ was found to be 1.96; with EPHB1, 0.928; in the data set with EPHB2, 0.919; with FGFR1, 0.756; with FGFR3, 2.06; with Fer (mouse) it was 1.02. Moreover, the phosphorylation enrichment in the data set with Fes was found to be 1.75; in the data set with Fyn, 0.895; with Hck, 0.723; in the data set with Jak2 it was 1.74; with MERTK, 1.16; with c-Abl (mouse), 1.05. The phosphorylation enrichment in the data set with c-Src was found to be 0.605. For the same sequence, the SH2 binding enrichment was 2.77 with Grb2 SH2, 3 with SHP2-C SH2 and 1.64 with c-Src SH2.
Consider QLHRKYCLSPR [HJURP_Y445_E444K], for which the phosphorylation enrichment came to 0.677 with AncSZ; 0.523 with EPHB1; 0.728 with EPHB2; 0.815 with FGFR1; 0.581 with FGFR3; 0.603 in the data set on Fer (mouse). For the same sequence, the phosphorylation enrichment with Fes was found to be 0.852; with Fyn, 0.545; in the data set with Hck it was 0.533; in the data set with Jak2 it was 0.527; in the data set with MERTK it was 0.491; in the data set on c-Abl (mouse), 0.679. Further, the phosphorylation enrichment with c-Src was determined as 0.636. Also, the SH2 binding enrichment was 1.09 with Grb2 SH2, 0.859 in the data set with SHP2-C SH2 and 0.961 with c-Src SH2.
With QLQTTYPSSDN [MAX_Y115_N114T], the phosphorylation enrichment in the data set with AncSZ was 0.773; in the data set with EPHB1, 0.445; with EPHB2, 0.48; in the data set with FGFR1 it was 0.433; in the data set with FGFR3 it was 0.626; in the data set on Fer (mouse), 0.789. Besides, the phosphorylation enrichment with Fes stood at 0.752; with Fyn it was 0.35; with Hck, 0.474; with Jak2, 0.853; in the data set with MERTK, 0.357; with c-Abl (mouse) it was 0.566. The phosphorylation enrichment in the data set on c-Src stood at 0.556. Besides, the values for the SH2 binding enrichment in the data set with Grb2 SH2, in the data set with SHP2-C SH2 and with c-Src SH2 were 0.921, 0.73 and 0.448, respectively.
